US20240352117A1

Molecular target: natural TSLP
Test: cell-based or functional assay

- IC50 of inhibiting STAT5 phosphorylation in SW756-STAT5-Luciferase reporter gene cells induced by natural TSLP: 1.45 ng/mL
Substance: Tezepelumab (antibody)
